Experimental data taken from the RNAGym collection of RNA variant scans (doi:10.1101/gr.219683.116).

B1: mRNA-splicing (parent)
chain: AGUUGCUGCUGGGAGCUCCAGCACAGUGAAAUGGACAGAAGGGCAGAGCAA

Variants of: B1
Assay: exon inclusion enrichment index; higher = more inclusion; WT1 exon 5 minigene, HEK293

| Variant | exon inclusion enrichment index |
| --- | --- |
| AGUUGCUGCUGGGAGCUCCACAACAGUGAAAUGGACAGAAGGGCAGAGCAA [G21C C22A] | 2.18 |
| AGUUCGCGCCGGGAGCUCCAGCACAGUGAAAUGACCAGAAGGGCAGAGCAA [G5C C6G U7C U10C G34A A35C] | 2.92 |
| AGUUAUAUAUGGGAGCUCCAGCACAGUGAAAUGGACAGUUGGGCAGAGCAA [G5A C6U U7A G8U C9A A39U A40U] | 0.0161 |
| AGUUCUUCUCGGGAGCUCCAGCACAGUGAAAUGGACAGAAGGGGUGAGCAA [G5C C6U G8C C9U U10C C44G A45U] | 1.26 |
| AGUUGCUGCUGGGAGCUCCAGCCUAGUGAAAUGGACAGAAGGGCAGAGCAA [A23C C24U] | 0.256 |
| AGUUCUUCUCGGGAGCUCCACAACAGUGAAAUGGACAGAAGGGCAGAGCAA [G5C C6U G8C C9U U10C G21C C22A] | 1.71 |
| AGUUAGGGAUGGGAGCUCCUACACAGUGAAAUGGACAGAAGGGCAGAGCAA [G5A C6G U7G C9A A20U G21A] | 0.000815 |
| AGUUGACGACGGGAGCUCCAGCACAGUGACGUGGACAGAAGGGCAGAGCAA [C6A U7C C9A U10C A30C A31G] | 3.94 |
| AGUUGCUGCUGGGAGCUCCAGCACAGGCAAAUGGACAGAAGGGCAGAGCAA [U27G G28C] | 0.101 |
| AGUUUCUUUUGGGAGCUCCAGCACAGUGAAACCGACAGAAGGGCAGAGCAA [G5U G8U C9U U32C G33C] | 0.216 |
| AGUUCACACAGGGAGCUCCCACACAGUGAAAUGGACAGAAGGGCAGAGCAA [G5C C6A U7C G8A U10A A20C G21A] | 0.0158 |
| AGUUGACGACGGGAGCUUCAGCACAGUGAAAUGGACAGAAGGGCAGAGCAA [C6A U7C C9A U10C C18U] | 2.7 |
| AGUUACCACCGGGAGCUCCAGCACAGUGAAAUGGACACUAGGGCAGAGCAA [G5A U7C G8A U10C G38C A39U] | 0.229 |
| AGUUAUAUAUGGGAGCUCCAUGACAGUGAAAUGGACAGAAGGGCAGAGCAA [G5A C6U U7A G8U C9A G21U C22G] | 0.0561 |
| AGUUCGCACAGGGAGCUCCAGCACAGUGAAAUGGACAGAAGGGCAGAGCAA [G5C C6G U7C G8A U10A] | 0.449 |
| AGUUCACACAGGGAGCUCCAGCAUGGUGAAAUGGACAGAAGGGCAGAGCAA [G5C C6A U7C G8A U10A C24U A25G] | 0.334 |
| AGUUAGGGAUGGGAGCUCCAGCACAGUGAAAUGGACAGAAGGGCAGAUCAA [G5A C6G U7G C9A G48U] | 0.00708 |
| AGUUCUUCUCGGGAGCUCCAGCACAGUGAAAUGGACAGAAGGGUCGAGCAA [G5C C6U G8C C9U U10C C44U A45C] | 2.63 |
| AGUUUCUUUUGGGAGCUCCAGCACAGUCUAAUGGACAGAAGGGCAGAGCAA [G5U G8U C9U G28C A29U] | 0.0407 |
| AGUUUCUUUUGGGAGCUCCAGCACAGUCGAAUGGACAGAAGGGCAGAGCAA [G5U G8U C9U G28C A29G] | 0.342 |
| AGUUGACGACGGGAGCUCCAGCACAGUGAAAUGGACUGAAGGGCAGAGCAA [C6A U7C C9A U10C A37U] | 2.49 |
| AGUUGACGACGGGAGCUCCAGCUUAGUGAAAUGGACAGAAGGGCAGAGCAA [C6A U7C C9A U10C A23U C24U] | 0.978 |
| AGUUCGCGCCGGGAGCUCCAGCACAGUGAGAUGGACAGAAGGGCAGAGCAA [G5C C6G U7C U10C A30G] | 3.89 |
| AGUUGAAGAAGGGAGCUCCAGCACAGUGAAAUGGACAGCUGGGCAGAGCAA [C6A U7A C9A U10A A39C A40U] | 0.533 |
| AGUUCACACACCGAGCUCCAGCACAGUGAAAUGGACAGAAGGGCAGAGCAA [G5C C6A U7C G8A U10A G11C G12C] | 0.382 |
| AGUUCUUCUCGGGAGCUCCAGCACAGUGCAAUGGACAGAAGGGCAGAGCAA [G5C C6U G8C C9U U10C A29C] | 1.75 |

| Variant | exon inclusion enrichment index |
| --- | --- |
| AGUUGACGACGGGAGCUCGGGCACAGUGAAAUGGACAGAAGGGCAGAGCAA [C6A U7C C9A U10C C19G A20G] | 2.38 |
| AGUUACCACCGGGAGCUCCAGCUCAGUGAAAUGGACAGAAGGGCAGAGCAA [G5A U7C G8A U10C A23U] | 1.81 |
| AGUUAUAUAUGGGAGCUCCAGCACAGUGAAAUGGACAGAAGGGCAGUCCAA [G5A C6U U7A G8U C9A A47U G48C] | 0.0371 |
| AGUUAUAUAUGGGAGCUCCAGCACAUUGAAAUGGACAGAAGGGCAGAGCAA [G5A C6U U7A G8U C9A G26U] | 0.0898 |
| AGUUCUUCUCGGGAUGUCCAGCACAGUGAAAUGGACAGAAGGGCAGAGCAA [G5C C6U G8C C9U U10C G15U C16G] | 1.44 |
| AGUUCUUCUCGGGAGCUCCAGCACGUUGAAAUGGACAGAAGGGCAGAGCAA [G5C C6U G8C C9U U10C A25G G26U] | 2.71 |
| AGUUCUUCUCGGGAGCUUAAGCACAGUGAAAUGGACAGAAGGGCAGAGCAA [G5C C6U G8C C9U U10C C18U C19A] | 0.179 |
| AGUUGAAGAAGGGAGCUCCAGCACUCUGAAAUGGACAGAAGGGCAGAGCAA [C6A U7A C9A U10A A25U G26C] | 0.956 |
| AGUUCAGCUCGGGAGCUCCAGCACAGUGAAAUGGACAGAAGGGCAGAGCAA [G5C C6A U7G G8C C9U U10C] | 1.36 |
| AGUUAGGGAUGGGAGCUCCAGCACAGUGAAAAGGACAGAAGGGCAGAGCAA [G5A C6G U7G C9A U32A] | 0.000886 |
| AGUUUCUUUUGGGAGCUCCAGCACAGUGAGCUGGACAGAAGGGCAGAGCAA [G5U G8U C9U A30G A31C] | 0.00346 |
| AGUUAGGGAUGGGUACUCCAGCACAGUGAAAUGGACAGAAGGGCAGAGCAA [G5A C6G U7G C9A A14U G15A] | 0.000793 |
| AGUUAUAUAUGGGAGCCGCAGCACAGUGAAAUGGACAGAAGGGCAGAGCAA [G5A C6U U7A G8U C9A U17C C18G] | 0.0591 |
| AGUUGCUGCUGGGAGCUCCAGCACAGAGAAAUGGACAGAAGGGCAGAGCAA [U27A] | 0.201 |
| AGUUUCUAGUGGGAGCUCCAGCACAGUGAAAUGGACAGAAGGGCAGAGCAA [G5U G8A C9G] | 0.061 |
| AGUUGCUGCUGGGAGCUCCAGCACAGUGAAAUGGACAGAAGGGUCGAGCAA [C44U A45C] | 0.266 |
| AGUUCUUCUCGGGAGCUCCAGCACAGUCCAAUGGACAGAAGGGCAGAGCAA [G5C C6U G8C C9U U10C G28C A29C] | 1.58 |
| AGUUGAAAUAGGGAGCUCCAGCACAGUGAAAUGGACAGAAGGGCAGAGCAA [C6A U7A G8A C9U U10A] | 0.0156 |
| AGUUACCACCGGGAGCUCCAGCAGAGUGAAAUGGACAGAAGGGCAGAGCAA [G5A U7C G8A U10C C24G] | 2.53 |
| AGUUCACACAGGGAGCUCCAGCACAGUGAAAUGGAACGAAGGGCAGAGCAA [G5C C6A U7C G8A U10A C36A A37C] | 0.146 |
| AGUUGCUGCUGGGAGCUCCAGCACAGUGAAAUGGACCUAAGGGCAGAGCAA [A37C G38U] | 0.0604 |
| AGUUCGCGCCGGGAGCUCCAGCACAUAGAAAUGGACAGAAGGGCAGAGCAA [G5C C6G U7C U10C G26U U27A] | 2.22 |
| AGUUGCUGCUGGGAGCUCCAGCCCAGUGAAAUGGACAGAAGGGCAGAGCAA [A23C] | 0.646 |
| AGUUGCUGCUGGGAGCUCCAGCACAGUGAAAUCCACAGAAGGGCAGAGCAA [G33C G34C] | 0.0456 |
| AGUUCGCGCCGGGAGCUCCAACACAGUGAAAUGGACAGAAGGGCAGAGCAA [G5C C6G U7C U10C G21A] | 2.93 |
